From US20030175830, “Reagents and methods for the screening of compounds useful in the treatment of neurological diseases” (Case Western Reserve University, published 2003)

Biological target: T1, Pet-1 (Rattus norvegicus, UniProt O70132 SEQ:1-340)
T1 sequence: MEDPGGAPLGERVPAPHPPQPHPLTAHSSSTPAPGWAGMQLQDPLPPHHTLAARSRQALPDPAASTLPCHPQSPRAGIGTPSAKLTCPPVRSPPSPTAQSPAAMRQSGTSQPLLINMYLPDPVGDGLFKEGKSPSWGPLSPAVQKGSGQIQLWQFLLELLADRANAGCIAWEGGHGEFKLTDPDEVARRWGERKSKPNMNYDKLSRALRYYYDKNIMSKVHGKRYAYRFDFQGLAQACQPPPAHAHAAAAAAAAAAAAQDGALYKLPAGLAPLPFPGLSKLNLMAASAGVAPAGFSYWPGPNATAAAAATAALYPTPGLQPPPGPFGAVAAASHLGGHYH
Assay: competition; molar excess unlabeled PEA3 eliminated complexes
Settings: tags: bacterially expressed; label: 32P

B1: PEA3 site oligonucleotide (dsDNA)
DNA 1: GATCCAGGAAGTGAC
DNA 2: GTCACTTCCTGGATC
- binding result: binds
